Data taken from US20250257143A1.

Biological target: beta gamma receptor (CD122/CD132) for IL2 and IL15 on a reporter cell line (UniProt P14784)
Sequence (P14784 27-551 limits assumed, chain 1 of 2): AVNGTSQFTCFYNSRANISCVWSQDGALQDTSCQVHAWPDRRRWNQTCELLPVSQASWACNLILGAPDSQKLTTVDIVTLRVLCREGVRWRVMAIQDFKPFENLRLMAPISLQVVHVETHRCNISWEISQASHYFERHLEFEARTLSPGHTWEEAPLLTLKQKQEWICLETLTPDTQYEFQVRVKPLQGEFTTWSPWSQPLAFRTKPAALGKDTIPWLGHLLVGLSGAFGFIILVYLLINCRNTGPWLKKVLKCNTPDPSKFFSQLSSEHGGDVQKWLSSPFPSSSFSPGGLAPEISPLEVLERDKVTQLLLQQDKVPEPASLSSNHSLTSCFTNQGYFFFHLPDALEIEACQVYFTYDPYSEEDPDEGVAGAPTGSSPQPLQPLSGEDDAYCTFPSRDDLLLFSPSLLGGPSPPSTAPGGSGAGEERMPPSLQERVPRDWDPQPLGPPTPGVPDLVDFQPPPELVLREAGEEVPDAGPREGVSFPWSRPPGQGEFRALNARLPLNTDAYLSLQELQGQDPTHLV
Sequence (P31785 23-369 limits assumed, chain 2 of 2, further chain): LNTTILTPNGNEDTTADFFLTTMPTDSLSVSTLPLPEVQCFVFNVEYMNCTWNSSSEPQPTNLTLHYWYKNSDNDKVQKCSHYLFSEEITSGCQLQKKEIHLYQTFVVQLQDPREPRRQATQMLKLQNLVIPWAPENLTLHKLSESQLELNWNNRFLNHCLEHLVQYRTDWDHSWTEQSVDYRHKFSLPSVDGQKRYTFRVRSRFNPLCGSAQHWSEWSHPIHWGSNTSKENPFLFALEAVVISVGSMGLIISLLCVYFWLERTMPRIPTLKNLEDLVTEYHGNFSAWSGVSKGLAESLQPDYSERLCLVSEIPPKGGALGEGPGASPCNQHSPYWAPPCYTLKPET

IC50, inhibition of the IL2 (12.5 ng/mL)-driven luciferase signal (RLUs) in βγ-receptor reporter cells: 0.0757 µg/mL | IC50, inhibition of the IL15 (6 ng/mL)-driven luciferase signal (RLUs) in βγ-receptor reporter cells: 0.6 µg/mL
Substance: anti-human CD122 antibody Clone TU27 (BioLegend, Catalog #339015)
